This is an account of results in paper PMC2646846.

Holding throughout (test): FRET or BRET
In general terms: BRET reads energy transfer from a luciferase to a nearby fluorophore.

The target of experiment [1] is calpain-2 Cys105Ala-CCPGCC-H6 (rat) labelled with LumioGreen, with the truncated small subunit (rat) (UniProt Q07009).
Experiment [2] deals with calpain-2 Cys105Ala-eGFP-H6 (rat) with the truncated small subunit (rat) (UniProt Q07009).
The target in experiment [3] is labeled calpastatin fragments (competition by non-fluorigenic calpains).

In the case of “cL-ABC-D1 Cys241Ser Ser142Cys labelled with AlexaFluor546 (from UniProt P20810 114-270) (domain or fragment)”, the increase in EmAcc/EmDon on addition of calcium in experiment [1] worked out at 330%; in experiment [2], 99.9%.

“cL-ABC-D1 Cys241Ser Ser142Cys labelled with TMR (from UniProt P20810 114-270) (domain or fragment)”: in experiment [1], the increase in EmAcc/EmDon on addition of calcium amounted to 330%.

“cL-ABC-D1 Cys241Ser Ser148Cys labelled with AlexaFluor546 (from UniProt P20810 114-270) (domain or fragment)”: the increase in EmAcc/EmDon on addition of calcium in experiment [1] amounted to 330%. Moreover, in experiment [2], the increase in EmAcc/EmDon on addition of calcium was found to be 99.9% and the maximal calcium-dependent increase in EmAcc/EmDon (average) is 0.45.

In the case of “cL-ABC-D1 Cys241Ser Ser148Cys labelled with TMR (from UniProt P20810 114-270) (domain or fragment)”, in experiment [1], the increase in EmAcc/EmDon on addition of calcium was 330%.

As to “cL-ABC-D1 Cys241Ser Ser151Cys labelled with AlexaFluor546 (from UniProt P20810 114-270) (domain or fragment)”, the increase in EmAcc/EmDon on addition of calcium in experiment [1] turned out to be 330%. Moreover, in experiment [2], the FRET efficiency was determined as 32.7%, the increase in EmAcc/EmDon on addition of calcium is 99.9% and the maximal calcium-dependent increase in EmAcc/EmDon (average) was 0.45.

Consider “cL-ABC-D1 Cys241Ser Ser151Cys labelled with TMR (from UniProt P20810 114-270) (domain or fragment)”, for which the increase in EmAcc/EmDon on addition of calcium in experiment [1] is 330%.

Consider “cL-ABC-D1 Cys241Ser Ser223Cys labelled with AlexaFluor546 (from UniProt P20810 114-270) (domain or fragment)”, for which, in experiment [2], the FRET efficiency was determined as 13.2% and the increase in EmAcc/EmDon on addition of calcium was 34.1%.

Consider “cL-ABC-D1-Cys241Ser-Ala246Cys Alexafluor546 (from UniProt P20810 114-270) (domain or fragment)”, for which, in experiment [2], the FRET efficiency was found to be 33.5%; the absolute increase in EmAcc/EmDon on addition of calcium (2.5 mM) is 0.456; the increase in EmAcc/EmDon on addition of calcium amounted to 99.9%; the increase in EmAcc/EmDon on addition of calcium (2.5 mM), single assay was determined as 70%. Besides, the maximal calcium-dependent increase in EmAcc/EmDon (average) in experiment [2] was determined as 0.45.

Turning to “cL-AtB-D1 Ser142Cys labelled with AlexaFluor546 (from UniProt P20810 114-202) (domain or fragment)”, the increase in EmAcc/EmDon on addition of calcium in experiment [2] was determined as 66.7%.

Regarding “cL-AtB-D1 Ser148Cys labelled with AlexaFluor546 (from UniProt P20810 114-202) (domain or fragment)”, in experiment [2], the increase in EmAcc/EmDon on addition of calcium was determined as 66.7% and the maximal calcium-dependent increase in EmAcc/EmDon (average) amounted to 0.169.

Take “cL-AtB-D1-Ser151Cys-Alexafluor546 (from UniProt P20810 114-202) (domain or fragment)”: in experiment [2], the FRET efficiency turned out to be 25.3%; the absolute increase in EmAcc/EmDon on addition of calcium (2.5 mM) was determined as 0.22; the increase in EmAcc/EmDon on addition of calcium worked out at 66.7%; the increase in EmAcc/EmDon on addition of calcium (2.5 mM), single assay worked out at 64.4%. For the same substance, the maximal calcium-dependent increase in EmAcc/EmDon (average) in experiment [2] came to 0.169.

The substance “calpain-2 Cys105Ala (rat), non-fluorigenic, with the truncated small subunit (from UniProt Q07009 20-700) (complex)” returned an inhibition of FRET at ~0.35 μM competitor in experiment [3] of 50%.

Regarding “porcine erythrocyte calpain 1 (from UniProt P35750 1-714; P04574 1-266) (complex)”, the inhibition of FRET at ~0.35 μM competitor in experiment [3] was determined as 50%.
